According to patent US20190218308A1 (INNATE PHARMA, published 2019):

Tests used:
[1] = biological target: T1, human CD39 (NTPDase1, ENTPD1), membrane-bound, on cells (human, UniProt P49961 1-510); assay: flow cytometry on Ramos lymphoma cells, first set of experiments
T1 construct: Expressed on CHO cells, Hek-293T cells (wild type) or endogenous on Ramos cells; also called huCD39; CHO-huCD39
T1 sequence: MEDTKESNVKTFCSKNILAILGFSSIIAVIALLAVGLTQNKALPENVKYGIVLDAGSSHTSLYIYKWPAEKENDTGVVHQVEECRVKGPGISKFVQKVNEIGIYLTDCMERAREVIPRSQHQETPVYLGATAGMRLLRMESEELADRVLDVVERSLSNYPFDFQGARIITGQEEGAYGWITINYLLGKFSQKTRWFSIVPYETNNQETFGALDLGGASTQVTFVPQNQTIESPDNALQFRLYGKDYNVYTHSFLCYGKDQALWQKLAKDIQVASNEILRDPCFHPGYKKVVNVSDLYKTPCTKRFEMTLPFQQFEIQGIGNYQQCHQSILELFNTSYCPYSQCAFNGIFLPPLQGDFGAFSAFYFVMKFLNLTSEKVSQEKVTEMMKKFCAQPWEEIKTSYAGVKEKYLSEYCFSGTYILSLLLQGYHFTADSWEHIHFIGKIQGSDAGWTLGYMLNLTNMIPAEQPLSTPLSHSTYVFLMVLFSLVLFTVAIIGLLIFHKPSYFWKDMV
Experimental: (§1) Cells were incubated with various concentration of unlabeled anti-CD39 antibody from 30 μg/ml to 5×10⁻⁴ μg/ml, for 30 minutes at 4° C. After washes, cells were incubated with Goat anti-mouse H+L labeled secondary antibody for 30 min at 4° C.

[2] = biological target: T2, CD39-M2 extracellular domain recombinant protein (soluble human CD39) (human, UniProt P49961 38-478); assay: cell-based or functional assay
T2 sequence: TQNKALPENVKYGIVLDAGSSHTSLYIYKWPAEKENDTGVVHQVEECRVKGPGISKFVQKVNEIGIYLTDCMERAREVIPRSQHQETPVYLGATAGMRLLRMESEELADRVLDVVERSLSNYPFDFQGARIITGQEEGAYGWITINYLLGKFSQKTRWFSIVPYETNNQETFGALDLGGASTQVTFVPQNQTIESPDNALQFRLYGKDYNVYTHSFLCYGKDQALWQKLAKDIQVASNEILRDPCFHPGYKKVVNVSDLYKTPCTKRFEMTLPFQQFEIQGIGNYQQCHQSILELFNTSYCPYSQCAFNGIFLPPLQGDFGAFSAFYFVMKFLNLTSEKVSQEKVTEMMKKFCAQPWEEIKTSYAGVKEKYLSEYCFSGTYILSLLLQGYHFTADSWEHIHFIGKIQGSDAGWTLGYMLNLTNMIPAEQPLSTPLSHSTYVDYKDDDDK

[3] = biological target: T1, human CD39 (NTPDase1, ENTPD1), …; assay: cell-based or functional assay
[4] = biological target: T1, human CD39 (NTPDase1, ENTPD1), …; assay: flow cytometry titration on CHO cells expressing human CD39 (panel CHO-huCD39)
Experimental: as §1

murine CD39 on CHO cells = biological target: T3, murine CD39 on CHO cells (murine, UniProt P55772 1-510); assay: flow cytometry titration on CHO cells expressing murine CD39 (panel CHO-moCD39)
T3 construct: whole, on cells; also called CHO-moCD39; mouse CD39
T3 sequence (looked up): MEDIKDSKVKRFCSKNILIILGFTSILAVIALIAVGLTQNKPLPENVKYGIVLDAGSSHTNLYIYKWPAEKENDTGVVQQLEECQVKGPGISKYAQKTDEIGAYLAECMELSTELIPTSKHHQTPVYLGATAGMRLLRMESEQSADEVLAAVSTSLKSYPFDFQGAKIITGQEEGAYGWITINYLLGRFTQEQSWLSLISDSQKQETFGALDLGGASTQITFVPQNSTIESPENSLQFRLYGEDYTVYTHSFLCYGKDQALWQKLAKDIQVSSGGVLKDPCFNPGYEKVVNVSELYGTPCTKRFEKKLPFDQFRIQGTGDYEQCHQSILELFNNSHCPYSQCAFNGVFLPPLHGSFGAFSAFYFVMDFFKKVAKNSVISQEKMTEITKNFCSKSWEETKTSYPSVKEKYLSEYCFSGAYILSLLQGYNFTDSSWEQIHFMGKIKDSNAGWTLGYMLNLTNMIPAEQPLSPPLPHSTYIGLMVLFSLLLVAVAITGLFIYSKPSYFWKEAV
Experimental: as §1

CD39 mutant 5 = biological target: T4, CD39 mutant 5 (human, UniProt P49961 1-510); assay: flow cytometry, Hek-293T cells transfected with CD39 mutant 5 (panel M5), Comp-Alexa Fluor 647-A
T4 construct: Expressed on Hek-293T cells; also called M5
T4 chain: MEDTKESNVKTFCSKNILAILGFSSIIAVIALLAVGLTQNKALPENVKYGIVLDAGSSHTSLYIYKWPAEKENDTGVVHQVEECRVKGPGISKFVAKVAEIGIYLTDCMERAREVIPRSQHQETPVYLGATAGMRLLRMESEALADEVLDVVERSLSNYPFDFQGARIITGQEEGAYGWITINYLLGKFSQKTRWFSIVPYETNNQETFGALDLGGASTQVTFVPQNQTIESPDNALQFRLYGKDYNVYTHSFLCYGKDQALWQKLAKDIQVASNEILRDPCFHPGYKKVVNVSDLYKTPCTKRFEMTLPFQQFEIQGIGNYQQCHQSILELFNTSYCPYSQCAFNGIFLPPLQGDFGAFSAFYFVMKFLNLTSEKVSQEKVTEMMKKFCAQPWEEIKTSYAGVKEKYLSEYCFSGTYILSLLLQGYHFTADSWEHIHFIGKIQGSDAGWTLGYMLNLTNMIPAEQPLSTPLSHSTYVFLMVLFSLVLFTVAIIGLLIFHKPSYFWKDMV
Experimental: Mutants were transfected in Hek-293T cells, as shown in the table 1, using numbering of SEQ ID NO: 2. […] Mutant 19 includes substitutions at residues R138, M139 and E142.
Mutants were transfected in Hek-293T cells, as shown in the table 1, using numbering of SEQ ID NO: 2. Dose-ranges of test antibodies (10-2.5-0.625-0.1563-0.0391-0.0098-0.0024-0.0006 μg/ml) are tested on the 20 generated mutants by flow cytometry.

B1: antibody I-394 (antibody, human IgG1, kappa, V domains shown)
VH: EVQLQQSGPELVKPGASVKMSCKASGYTFTDYNMHWVKQSHGRTLEWIGYIVPLNGGSTFNQKFKGRATLTVNTSSRTAYMELRSLTSEDSAAYYCARGGTRFAYWGQGTLVTVSA
VL: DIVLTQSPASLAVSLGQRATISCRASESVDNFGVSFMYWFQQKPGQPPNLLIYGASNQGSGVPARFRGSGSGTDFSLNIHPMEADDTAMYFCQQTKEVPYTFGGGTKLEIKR
In the case of B1, the EC50 [1] is reported as 0.16 µg/mL, the “IC50, inhibition of the ATPase activity of soluble CD39 protein” value [2] is reported as 0.003 µg/mL and the “IC50 (inhibition of 50% of the enzymatic activity of CD39 expressed by 50,000 Ramos cells)” value [3] is reported as 0.05 µg/mL. The “EC50 (read off the curve)” value [4] was about 0.2 µg/mL, the binding result (murine CD39 on CHO cells) was “no binding (tested: about 30 µg/ml)” and the binding result (CD39 mutant 5) was “binds”.
